According to the RNAGym collection of RNA variant scans (doi:10.1093/nar/gkz1192):

B1: CPEB3 Ribozyme (parent)
chain: UAACAGGGGGCCACAGCAGAAGCGUUCACGUCGCAGCCCCUGUCAGAUUCUGGUGAAUCUGCGAAUUCUGCUGUAUAUCUC

Variants of: B1
Assay: self-cleavage, relative activity (ratio to wild type); higher = more cleavage; in vitro, sequencing
Outline: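 Relative activity compares each variant's cleaved/total read fraction with that of the unmutated ribozyme. To get these fractions, barcoded CPEB3 ribozyme libraries from rounds of error-prone PCR were transcribed with T7 RNA polymerase for 5 hours at 37°C and then given 15 min of DNase I treatment before EDTA was added. The RNAs were reverse transcribed with template switching and sequenced on Illumina, and DNA sequencing linked barcodes to variants. A minimum of 5 reads applied, and three batches were averaged.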

Variant | self-cleavage
A28U G53U | 1
A28U G55A | 0.59
A28U G61A | 0.45
A28U G63A | 0.62
A28U G70A | 0.27
A28U G73A | 0.99
A28U G73U | 1.37
A28U U31A | 0.41
A28U U31C | 0.53
A28U U31G | 0.31
A28U U41A | 0.26
A28U U41C | 0.73
A28U U41G | 0.14
A28U U43A | 1
A28U U43C | 0.41
A28U U48A | 0.38
A28U U48C | 0.42
A28U U49A | 0.43
A28U U49C | 0.31
A28U U49G | 0.11
A28U U51A | 0.77

Variant | self-cleavage
A28U U51C | 0.73
A28U U54A | 0.71
A28U U54C | 0.78
A28U U58A | 0.26
A28U U58C | 0.39
A28U U58G | 0.2
A28U U60A | 0.26
A28U U60C | 0.38
A28U U60G | 0.16
A28U U66A | 0.31
A28U U66C | 0.37
A28U U66G | 0.69
A28U U67A | 0.3
A28U U67C | 0.27
A28U U67G | 0.2
A28U U69A | 0.37
A28U U69C | 0.33
A28U U69G | 0.42
A28U U72A | 0.55
A28U U72C | 0.88
A28U U72G | 0.89

Variant | self-cleavage
A28U U74A | 1.19
A28U U74C | 0.87
A28U U76A | 0.87
A28U U76C | 0.88
A28U U78A | 0.51
A28U U78C | 0.73
A28U U78G | 0.97
A28U U80A | 0.71
A28U U80C | 0.97
C29A | 0.44
C29A A35G | 1.11
C29A A35U | 0.51
C29A A45G | 0.46
C29A A47G | 0.4
C29A A56G | 0.43
C29A A57G | 0.33
C29A A64G | 0.37
C29A A64U | 0.27
C29A A65G | 0.26
C29A A65U | 0.14
C29A A75G | 0.38

Variant | self-cleavage
C29A A77G | 0.46
C29A A77U | 0.33
C29A C32A | 0.32
C29A C40A | 0.17
C29A C59U | 0.54
C29A C62U | 0.15
C29A C68A | 0.23
C29A G53U | 0.42
C29A G55A | 0.31
C29A G63U | 0.59
C29A U31A | 0.3
C29A U31C | 0.3
C29A U41A | 0.37
C29A U41C | 0.39
C29A U41G | 0.43
C29A U48A | 0.09
C29A U48C | 0.11
C29A U49A | 0.45
C29A U49C | 0.29
C29A U49G | 0.22
